Reference: article PMC4726260, “Combined ligand-observe ^19F and protein-observe ^15N,^1H-HSQC NMR suggests phenylalanine as the key Δ-somatostatin residue recognized by human protein disulfide isomerase” (Scientific Reports, 2016)

Legend:
Assay in all cases: NMR titration; ligand-observed 19F 1D; 0.15 mM fluorinated peptide constant, 15N b'x titrated (ratios 1:4 to 2.5:1); 310 K; 20 mM sodium phosphate pH 7.0, 50 mM NaCl, 5% D6-DMSO, 5% 2H2O, 0.05% sodium azide
F1 Δ-som = biological target: F1 Δ-som
F1,2,3 Δ-som = biological target: F1,2,3 Δ-som
F2 Δ-som = biological target: F2 Δ-som
F3 Δ-som = biological target: F3 Δ-som

Kd (F1 Δ-som): 109 µM | KD tracked on the F1 (Phe6) 19F resonance (F1,2,3 Δ-som): 108 µM | KD tracked on the F2 (Phe7) 19F resonance (F1,2,3 Δ-som): 33 µM | KD tracked on the F3 (Phe11) 19F resonance (F1,2,3 Δ-som): 45 µM | Kd (F1,2,3 Δ-som): 62 µM | Kd (F2 Δ-som): 27 µM | Kd (F3 Δ-som): 97 µM
Substance: human protein disulphide isomerase (hPDI) fragment b'x (domain or fragment)
